# According to publication PMC10786891, “Massively parallel profiling of RNA-targeting CRISPR-Cas13d”:
# Where a chain is given by its changes, count along the chain named. Numbers in names are those of the source.
# T1: EsCas13d, nuclease-dead (Eubacterium siraeum, UniProt B0MS50, R295A;H300A;R849A;H854A)
# T1 sequence: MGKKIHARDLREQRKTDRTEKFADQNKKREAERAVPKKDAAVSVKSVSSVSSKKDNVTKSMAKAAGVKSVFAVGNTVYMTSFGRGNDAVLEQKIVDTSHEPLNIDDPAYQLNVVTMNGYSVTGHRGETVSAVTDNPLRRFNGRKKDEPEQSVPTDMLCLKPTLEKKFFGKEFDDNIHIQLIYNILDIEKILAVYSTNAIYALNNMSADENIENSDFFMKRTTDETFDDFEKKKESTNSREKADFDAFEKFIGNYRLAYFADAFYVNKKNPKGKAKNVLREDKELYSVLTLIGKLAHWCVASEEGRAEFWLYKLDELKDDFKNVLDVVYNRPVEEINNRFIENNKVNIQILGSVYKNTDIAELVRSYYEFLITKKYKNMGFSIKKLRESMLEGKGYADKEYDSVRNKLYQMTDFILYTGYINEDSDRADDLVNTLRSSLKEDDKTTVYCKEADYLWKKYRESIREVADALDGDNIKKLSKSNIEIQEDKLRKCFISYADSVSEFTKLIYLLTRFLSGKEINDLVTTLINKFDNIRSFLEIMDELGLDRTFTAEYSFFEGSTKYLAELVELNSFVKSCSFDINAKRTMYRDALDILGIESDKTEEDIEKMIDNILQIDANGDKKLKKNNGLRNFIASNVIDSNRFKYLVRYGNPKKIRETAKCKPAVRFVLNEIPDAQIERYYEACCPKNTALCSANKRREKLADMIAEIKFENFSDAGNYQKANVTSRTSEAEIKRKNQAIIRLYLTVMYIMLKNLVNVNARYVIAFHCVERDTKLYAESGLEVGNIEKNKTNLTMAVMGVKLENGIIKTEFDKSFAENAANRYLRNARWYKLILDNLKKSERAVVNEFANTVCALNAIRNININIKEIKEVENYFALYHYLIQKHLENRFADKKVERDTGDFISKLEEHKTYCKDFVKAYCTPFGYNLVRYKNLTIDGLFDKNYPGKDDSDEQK
# B1: target 1 U3A,U19G (mixed)
# RNA 1: CACCCGUGCAAAAAUGCAGGGGUCUAAAACUGAGCGGAUAACCUCUCUAUGG
# RNA 2: GGGAAUGGAUCCACAUCUACGAAUUCGUACCAGAGAGAGGUUAUCCGCACACCGAGAUCGGAAGAGCACACGU
# B2: target 1 insU 3' of 20,insG 3' of 19 (mixed)
# RNA 1: B1 RNA 1
# RNA 2: GGGAAUGGAUCCACAUCUACGAAUUCGUACCAUUGAGAGAGGUUAUCCGCUCACCGAGAUCGGAAGAGCACACGU
# B3: target 1 insA 3' of 4,insU 3' of 2 (mixed)
# RNA 1: B1 RNA 1
# RNA 2: GGGAAUGGAUCCACAUCUACGAAUUCGUACCAUAGAGAGGUUAUCCGCAUCUACCGAGAUCGGAAGAGCACACGU
# B4: target 1 insA 3' of 12,insC 3' of 5 (mixed)
# RNA 1: B1 RNA 1
# RNA 2: B2 RNA 2 with U34A, A40G, G41A, G42U, U44A, A45U, U46C, C48G, G49C
# B5: target 1 insG 3' of 20,insU 3' of 20 (mixed)
# RNA 1: B1 RNA 1
# RNA 2: B2 RNA 2 with U33G, G35U
# B6: target 1 insG 3' of 6,insU 3' of 5 (mixed)
# RNA 1: B1 RNA 1
# RNA 2: B3 RNA 2 with C48G, A49U, U50C, C51U, U52C
# B7: target 1 insG 3' of 7,insG 3' of 4 (mixed)
# RNA 1: B1 RNA 1
# RNA 2: B3 RNA 2 with C46G, G47C, C48G, A49C, U50G, C51U, U52C
# B8: target 1 insA 3' of 15,insA 3' of 5 (mixed)
# RNA 1: B1 RNA 1
# RNA 2: B2 RNA 2 with U34A, G39A, A40G, G42U, U44A, A45U, U46C, C48G, G49A
# B9: target 1 G13A,G15C (mixed)
# RNA 1: B1 RNA 1
# RNA 2: B1 RNA 2 with G33U, G37C, G39A, A49U
# B10: target 1 insA 3' of 10,insG 3' of 10 (mixed)
# RNA 1: B1 RNA 1
# RNA 2: B2 RNA 2 with U34A, A40G, G41U, G42U, U43A, U44G
# B11: target 1 insC 3' of 10,insU 3' of 2 (mixed)
# RNA 1: B1 RNA 1
# RNA 2: B3 RNA 2 with A43C, U44A, C45U, G47C, C48G, A49C
# B12: target 1 insC 3' of 22,insU 3' of 21 (mixed)
# RNA 1: B1 RNA 1
# RNA 2: B2 RNA 2 with A32C, U34A, G35U
# B13: target 1 insU 3' of 22,insG 3' of 3 (mixed)
# RNA 1: B1 RNA 1
# RNA 2: GGGAAUGGAUCCACAUCUACGAAUUCGUACUCAUAGAGAGGUUAUCCGCUGCACCGAGAUCGGAAGAGCACACGU
# B14: target 1 insA 3' of 13,insG 3' of 6 (mixed)
# RNA 1: B1 RNA 1
# RNA 2: B2 RNA 2 with U34A, G42U, U44A, A45U, U46C, C48G
# B15: target 1 C2U,A18U (mixed)
# RNA 1: B1 RNA 1
# RNA 2: B1 RNA 2 with G33U, A34U, A49U, C50U
# B16: target 1 A1C,C7U (mixed)
# RNA 1: B1 RNA 1
# RNA 2: B1 RNA 2 with G33U, C45U, A49U, A51C
# B17: target 1 insC 3' of 18,insG 3' of 9 (mixed)
# RNA 1: B1 RNA 1
# RNA 2: GGGAAUGGAUCCACAUCUACGAAUUCGUACCAUACGAGAGGUUAGUCCGCUCACCGAGAUCGGAAGAGCACACGU
# B18: target 1 C2A,C22U (mixed)
# RNA 1: B1 RNA 1
# RNA 2: B1 RNA 2 with C30U, G33U, A49U, C50A
# B19: target 1 insG 3' of 2,insG 3' of 1 (mixed)
# RNA 1: B1 RNA 1
# RNA 2: B3 RNA 2 with A49U, U50C, C51G, U52A, A53G
# B20: target 1 insG 3' of 16,insG 3' of 6 (mixed)
# RNA 1: B1 RNA 1
# RNA 2: B17 RNA 2 with C35G, G36A, A37G, G45U, U46C, C48G
# B21: target 1 A1U,C7U (mixed)
# RNA 1: B1 RNA 1
# RNA 2: B1 RNA 2 with G33U, C45U, A49U, A51U
# B22: target 1 insC 3' of 22,insG 3' of 20 (mixed)
# RNA 1: B1 RNA 1
# RNA 2: B2 RNA 2 with A32C, U33A, U34G, G35U
# B23: target 1 U10A,A18C (mixed)
# RNA 1: B1 RNA 1
# RNA 2: B1 RNA 2 with G33U, A34C, U42A, A49U
# B24: target 1 insC 3' of 13,insC 3' of 3 (mixed)
# RNA 1: B1 RNA 1
# RNA 2: B3 RNA 2 with G40C, U41G, A43U, U44A, C45U, G47C, C48G, A49C, U52C
# B25: target 1 insU 3' of 5,insA 3' of 2 (mixed)
# RNA 1: B1 RNA 1
# RNA 2: B3 RNA 2 with C48U, A49C, U52A
# B26: target 1 A1G,C7U (mixed)
# RNA 1: B1 RNA 1
# RNA 2: B1 RNA 2 with G33U, C45U, A49U, A51G
# B27: target 1 complement block 2-13 (mixed)
# RNA 1: B1 RNA 1
# RNA 2: GGGAAUGGAUCCACAUCUACGAAUUCGUACCAUAGAGACCAAUAGGCGAGACCGAGAUCGGAAGAGCACACGU
# B28: target 1 insC 3' of 12,insU 3' of 6 (mixed)
# RNA 1: B1 RNA 1
# RNA 2: B2 RNA 2 with U34A, A40G, G41C, G42U, U44A, A45U, U46C, C48U
# B29: target 1 insG 3' of 16,insU 3' of 5 (mixed)
# RNA 1: B1 RNA 1
# RNA 2: B17 RNA 2 with C35G, G36A, A37G, G45U, U46C, C48G, G49U
# B30: target 1 insG 3' of 4 (mixed)
# RNA 1: B1 RNA 1
# RNA 2: GGGAAUGGAUCCACAUCUACGAAUUCGUACCAUAGAGAGGUUAUCCGCGUCACCGAGAUCGGAAGAGCACACGU
# B31: target 1 insU 3' of 5,insC 3' of 1 (mixed)
# RNA 1: B1 RNA 1
# RNA 2: B3 RNA 2 with C48U, A49C, U52A, A53C
# B32: target 1 insA 3' of 22,insG 3' of 4 (mixed)
# RNA 1: B1 RNA 1
# RNA 2: B13 RNA 2 with U31A, U50G, G51U
# B33: target 1 G5C,A9C (mixed)
# RNA 1: B1 RNA 1
# RNA 2: B1 RNA 2 with G33U, A43C, G47C, A49U
# Molecular target: T1, EsCas13d, nuclease-dead
# Experiment: crRNA (strand 1, pre-loaded); Mg2+; 40 mM Tris-HCl pH 7.5, 150 mM NaCl, 6 mM MgCl2, 1 mM DTT, 0.1% Tween-20, 0.2 mg/ml BSA; 25 C; 10 min per concentration, then washed
# Settings: tags: His6-TwinStrep-SUMO cleaved; N-terminal SNAP kept (SNAP-Surface 488); label: 3' end held by stalled T7 RNA polymerase
row,Binder,Kd [nM]
1,B1,50 ± 5
2,B2,30.4 ± 1.8
3,B3,9.4 ± 0.9
4,B4,23.6 ± 2.1
5,B5,28.4 ± 1.6
6,B6,5.6 ± 0.6
7,B7,6.23 ± 0.3
8,B8,15.9 ± 2
9,B9,36 ± 9
10,B10,12.3 ± 0.6
11,B11,23.9 ± 2.3
12,B12,17.1 ± 1
13,B13,25.3 ± 1.7
14,B14,3.93 ± 0.27
15,B15,21.2 ± 1.5
16,B16,9.6 ± 0.9
17,B17,59 ± 11

row,Binder,Kd [nM]
1,B18,~30
2,B19,7 ± 0.6
3,B20,24.3 ± 1.9
4,B21,9.1 ± 1.3
5,B22,23.2 ± 2.3
6,B23,100 ± 17
7,B24,13.8 ± 0.7
8,B25,11 ± 0.5
9,B26,9.2 ± 0.7
10,B27,74 ± 11
11,B28,16.4 ± 0.7
12,B29,15.5 ± 1.4
13,B30,6.65 ± 0.25
14,B31,21.6 ± 2.4
15,B32,9.6 ± 0.6
16,B33,16.7 ± 0.8
